This is an account of results in the RNAGym collection of RNA variant scans (doi:10.1093/nar/gkz1192).

B1: CPEB3 Ribozyme (parent)
chain: UAACAGGGGGCCACAGCAGAAGCGUUCACGUCGCAGCCCCUGUCAGAUUCUGGUGAAUCUGCGAAUUCUGCUGUAUAUCUC

In this data set the parent is B1. The data set can be described thus: self-cleavage, relative activity (ratio to wild type); higher = more cleavage; in vitro, sequencing. The method, boiled down: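 CPEB3 self-cleaving ribozyme mutant libraries were made by rounds of error-prone PCR, barcoded, and transcribed in vitro with T7 RNA polymerase for 5 hours at 37°C. Cleavage occurred during transcription and a 15 min DNase I step before EDTA stop. RNAs were reverse transcribed with template switching and Illumina-sequenced, with DNA sequencing mapping barcodes to variants. Relative activity is the variant's cleaved/total read fraction divided by wild type's (minimum 5 reads), averaged across three batches.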
On to UAACAGGGGGCCACAGCAGAAGCGUUCACGUCCCAGCCCCUGUCAGAUUCUGGUGAAUCUGCGAAUUCUGCUGUACAUCUC [G33C U76C], for which the self-cleavage is 0.12.
The figure for UAACAGGGGGCCACAGCAGAGGCGUUCACGUCGCAGCCCCUGUCAGAUUCUGGUGAAUCUGCGAAUUCUGCUGUAUAACUC [A21G U78A] is 0.53; for UAACAGGGGGCUACAGCAGAAGCGUUCACGUCGCAGCCCCUGUCAGAUUCUGGUGGAUCUGCGAAUUCUGCUGUAUAUCUC [C12U A56G] it is 1.13.
The figure for UAACAGGGGGCCACAGCAGAAGCGUUCACGUCGCAGCCCCUGUCAGAUUCUGGCGAAUCUGCGAAAUCUGCUGUAUAUCUC [U54C U66A] is 0.52.
For the variant UAACGGGGGGCCACAGCAGAAGCGUUCACGUCGCAGCCCCUGUCAGAUUCUGGUGAAUCUGCGAAUCCUGCUGUAUAUCUC [A5G U67C], the self-cleavage turned out to be 0.34.
Turning to UAACAGGGGGCCACAGCAGAAGCGUUCACGUCGCAGCCCCUGUCAGAUUCUGGUGAAUCUGUGAAUUCUGCUGAAUAUCUC [C62U U74A], the self-cleavage was found to be 0.32.
The figure for UAACAGGGGGCCACAGCAGAAGCGUUCACGUCGCUGCCCCUGUCAGAUUCUGGUGUAUCUGCGAAUUCUGCUGUAUAUCUC [A35U A56U] is 0.33; for UAACGGGGGGCCACAGCAGAAGCGUUCACGUCGCAGCCCCUGUCAGAUUCUGGUGAAUCUGCGAACUCUGCUGUAUAUCUC [A5G U66C] it is 0.38.
The figure for UAACAGGGGGCCACAGCAAAAGCGUUCACGUCGCAGCCCCUGUCAGAUUCUAGUGAAUCUGCGAAUUCUGCUGUAUAUCUC [G19A G52A] is 0.16; for UAACAGGGGGCCACCGCAGAAGCGUUCACGUCGCAGCCCCUGUCAGAUUCUGGUGAAUCUGCGAAUUCUGCCGUAUAUCUC [A15C U72C] it is 1.1.
UAACAGGGGGCCACAGCAGAAGCGUUCACGUUGCAGCCCCUGUCAGAUUCUCGUGAAUCUGCGAAUUCUGCUGUAUAUCUC [C32U G52C]: the self-cleavage is 0.2.
Take UAACAGGGGGCCACAGCAGAAGCGUUCACGUCGCAGCCCAUGUCAGAUUCGGGUGAAUCUGCGAAUUCUGCUGUAUAUCUC [C40A U51G]: the self-cleavage turned out to be 0.25.
The figure for UAACAGGGGGCCACAGCAGAAGCGUUCACGUCGCAGCCCCUGUCAGAUUCUGGGGAAUCUGCGGAUUCUGCUGUAUAUCUC [U54G A64G] is 0.6; for UAACAGGGGGCCACAGCAGAAGCGUUCACGUCGCAGCCCCUGCCAGAUUCUGGUGAAUCUGAGAAUUCUGCUGUAUAUCUC [U43C C62A] it is 0.31; for UAACAGGGGGCCACAGCAGAAGCGUUCACGUCGCAGCCCCUGGCAAAUUCUGGUGAAUCUGCGAAUUCUGCUGUAUAUCUC [U43G G46A] it is 0.37.
As for UUACAGGGGGCCGCAGCAGAAGCGUUCACGUCGCAGCCCCUGUCAGAUUCUGGUGAAUCUGCGAAUUCUGCUGUAUAUCUC [A2U A13G], the figure is 0.84.
As for UAACAGGGGGCCACAGCAGAAGCGUUCACGUCCCAGCCCCUGACAGAUUCUGGUGAAUCUGCGAAUUCUGCUGUAUAUCUC [G33C U43A], the figure is 0.18.
For the variant UAACAGGGGGCCACAGCAGAAGCGUUCUCGUCCCAGCCCCUGUCAGAUUCUGGUGAAUCUGCGAAUUCUGCUGUAUAUCUC [A28U G33C], the self-cleavage was 0.26.
As for UAACAGGGGGCCACAGCAGGAGCGUUCACGUCGCAGCCCCUGUCAGAUUCUGGUGAAUCUGCGAAUACUGCUGUAUAUCUC [A20G U67A], the figure is 0.55.
As for UAAGAGGGGGCCGCAGCAGAAGCGUUCACGUCGCAGCCCCUGUCAGAUUCUGGUGAAUCUGCGAAUUCUGCUGUAUAUCUC [C4G A13G], the figure is 1.08.
As for UAACAGGGGGCCAUAGCAGAAGCGUUCACGUCGCAGCCCCUGUCAGAUUCUGGUGAAUCGGCGAAUUCUGCUGUAUAUCUC [C14U U60G], the figure is 0.41; as for UAACAGGGGGCCACAGCAGAAGCGUUCACGUCGCAGCCCCUGUCAGAUUCUGGUGAAACUGCGAAUUCUGCUGUAUACCUC [U58A U78C], 0.42.
On to UAACAGGGGGCCACAGCAGAAGCGUUCACGUCGCAGCCCCUGUCAGAUUCUGGUGAAUCUGCGAAGUCUACUGUAUAUCUC [U66G G70A], for which the self-cleavage came to 0.27.
As for UAACAGGGGGCCACAGCAGAAGCGUUCACGUCGCAGCCCCUGUCAGAUUCUGGUGAAUCUGCGAAUUCUGUUGUAUAUCUC [C71U], the figure is 0.68; as for UAACAGGGGGCCACAGCAGAAGCGUUCACGUCGCAGCCCCUGUCAGAUUCUGGUGAAUCUGCGAAUCCUGCUGUACAUCUC [U67C U76C], 0.3; as for UAACAGGGGGCCACACCAGAAGCGUUCACGUCGCAGCCCCUGUCAGAGUCUGGUGAAUCUGCGAAUUCUGCUGUAUAUCUC [G16C U48G], 0.18.
AAACAGGGGGCCACAGCAGAAGCGCUCACGUCGCAGCCCCUGUCAGAUUCUGGUGAAUCUGCGAAUUCUGCUGUAUAUCUC [U1A U25C]: the self-cleavage was 0.41.
As for UAACAGGUGGCCACAGCAGAAGCGUUCACGUCGCUGCCCCUGUCAGAUUCUGGUGAAUCUGCGAAUUCUGCUGUAUAUCUC [G8U A35U], the self-cleavage came to 0.27.
As for UGACAGGGGGCUACAGCAGAAGCGUUCACGUCGCAGCCCCUGUCAGAUUCUGGUGAAUCUGCGAAUUCUGCUGUAUAUCUC [A2G C12U], the figure is 1.04; as for UAACAGGGGGCCACAGCAGAAGCGUUCACGUCGCAGCCCCUGUCAGAUUCUGGUGAAUCUGCGCAUACUGCUGUAUAUCUC [A64C U67A], 0.19; as for UAACAGGGGGCCACAGCAGAAGCGUUCUCGUCGCAGCCCCUGUCAGAUUCUGGUGAACCUGCGAAUUCUGCUGUAUAUCUC [A28U U58C], 0.39.
With UAACAGGGGGCCACAGCAGAAGCGUUCACGUCGCAGCCCCUGUCAGAUUCUGGCGAAUCUGCGAAUUCUGCUGUAUACCUC [U54C U78C], the self-cleavage stood at 0.97.
Take UAACAGGGGGCCACAGCAGAGGCGUUCACGUCGCAGCCCCUGUCAGAUUCUGGUGAAUCUGCGAAUUCUGCAGUAUAUCUC [A21G U72A]: the self-cleavage turned out to be 0.44.
As for UAACAGGGGGCCACAGCAUAAGCGUUCACGUCGCAGCCCCUGUCAGAUUCUGGUGAAUCUGCGAAUUCUGCUGUAUAUCCC [G19U U80C], the figure is 0.26.
